In series [1] the test system is Control (peptide of Table 12).

rhMMP9, sequence (chain, as listed by the source): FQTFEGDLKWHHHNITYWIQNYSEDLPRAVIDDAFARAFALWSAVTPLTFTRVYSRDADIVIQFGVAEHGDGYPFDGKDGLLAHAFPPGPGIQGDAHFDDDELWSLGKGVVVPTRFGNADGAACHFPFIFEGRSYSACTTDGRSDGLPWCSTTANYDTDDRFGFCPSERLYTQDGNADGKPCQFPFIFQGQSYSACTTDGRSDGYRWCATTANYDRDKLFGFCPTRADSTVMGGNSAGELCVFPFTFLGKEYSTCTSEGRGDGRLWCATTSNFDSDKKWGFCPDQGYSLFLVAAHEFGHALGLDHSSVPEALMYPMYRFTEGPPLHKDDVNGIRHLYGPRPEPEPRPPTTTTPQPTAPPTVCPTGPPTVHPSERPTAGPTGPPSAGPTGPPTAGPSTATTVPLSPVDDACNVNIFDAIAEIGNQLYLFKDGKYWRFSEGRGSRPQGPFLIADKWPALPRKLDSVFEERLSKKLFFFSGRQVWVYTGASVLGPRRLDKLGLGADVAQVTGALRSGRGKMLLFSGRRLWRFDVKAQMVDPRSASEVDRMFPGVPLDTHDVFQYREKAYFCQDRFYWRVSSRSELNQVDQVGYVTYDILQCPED
rmMMP2, sequence (chain, as listed by the source): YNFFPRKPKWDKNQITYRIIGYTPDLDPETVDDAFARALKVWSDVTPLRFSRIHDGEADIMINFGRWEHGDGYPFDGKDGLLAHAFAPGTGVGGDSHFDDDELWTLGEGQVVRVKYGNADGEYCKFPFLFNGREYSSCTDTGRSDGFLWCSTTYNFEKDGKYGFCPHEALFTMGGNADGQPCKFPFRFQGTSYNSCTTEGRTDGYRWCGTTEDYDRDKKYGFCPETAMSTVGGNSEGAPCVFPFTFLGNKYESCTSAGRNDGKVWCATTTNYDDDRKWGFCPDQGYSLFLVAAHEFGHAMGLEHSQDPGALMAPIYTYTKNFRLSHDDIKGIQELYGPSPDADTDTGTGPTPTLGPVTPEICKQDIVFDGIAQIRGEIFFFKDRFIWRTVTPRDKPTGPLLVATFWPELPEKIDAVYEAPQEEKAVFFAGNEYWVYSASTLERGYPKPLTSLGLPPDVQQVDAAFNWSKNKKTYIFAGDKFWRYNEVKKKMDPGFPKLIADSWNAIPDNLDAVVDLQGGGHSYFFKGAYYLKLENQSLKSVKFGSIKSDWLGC
rhMMP3, sequence (chain, as listed by the source): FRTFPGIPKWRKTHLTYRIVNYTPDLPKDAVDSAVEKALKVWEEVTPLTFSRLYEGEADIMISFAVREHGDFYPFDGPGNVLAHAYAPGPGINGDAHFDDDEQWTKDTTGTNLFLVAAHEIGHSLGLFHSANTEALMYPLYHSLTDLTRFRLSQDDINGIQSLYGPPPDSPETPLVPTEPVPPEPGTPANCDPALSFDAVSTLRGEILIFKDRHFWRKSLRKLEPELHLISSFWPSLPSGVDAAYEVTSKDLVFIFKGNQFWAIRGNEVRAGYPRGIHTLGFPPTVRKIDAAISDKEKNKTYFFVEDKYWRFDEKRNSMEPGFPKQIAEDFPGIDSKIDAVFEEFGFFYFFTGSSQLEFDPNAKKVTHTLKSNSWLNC
BI-052, sequence (chain, as listed by the source, chain 1 of 2): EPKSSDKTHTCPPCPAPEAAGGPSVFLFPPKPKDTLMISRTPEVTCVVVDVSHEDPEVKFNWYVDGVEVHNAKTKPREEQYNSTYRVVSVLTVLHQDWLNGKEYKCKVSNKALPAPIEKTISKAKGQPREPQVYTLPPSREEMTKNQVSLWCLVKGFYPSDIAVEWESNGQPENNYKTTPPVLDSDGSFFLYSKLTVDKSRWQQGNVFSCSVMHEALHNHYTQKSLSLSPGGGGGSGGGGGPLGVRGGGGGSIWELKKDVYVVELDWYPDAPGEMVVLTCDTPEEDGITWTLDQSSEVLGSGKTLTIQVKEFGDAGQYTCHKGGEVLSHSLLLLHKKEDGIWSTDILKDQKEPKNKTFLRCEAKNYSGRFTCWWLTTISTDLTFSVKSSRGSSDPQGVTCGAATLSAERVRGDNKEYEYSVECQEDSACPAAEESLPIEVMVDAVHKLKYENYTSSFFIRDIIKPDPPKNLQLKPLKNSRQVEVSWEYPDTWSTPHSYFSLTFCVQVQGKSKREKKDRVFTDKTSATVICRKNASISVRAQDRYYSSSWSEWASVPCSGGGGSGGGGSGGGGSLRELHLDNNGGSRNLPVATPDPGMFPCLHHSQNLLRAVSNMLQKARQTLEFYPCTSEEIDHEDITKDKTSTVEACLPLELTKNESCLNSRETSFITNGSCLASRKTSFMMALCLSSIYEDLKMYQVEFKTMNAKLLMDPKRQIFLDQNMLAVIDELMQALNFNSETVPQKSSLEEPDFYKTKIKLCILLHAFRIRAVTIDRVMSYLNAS
BI-052, sequence (chain, as listed by the source, chain 2 of 2): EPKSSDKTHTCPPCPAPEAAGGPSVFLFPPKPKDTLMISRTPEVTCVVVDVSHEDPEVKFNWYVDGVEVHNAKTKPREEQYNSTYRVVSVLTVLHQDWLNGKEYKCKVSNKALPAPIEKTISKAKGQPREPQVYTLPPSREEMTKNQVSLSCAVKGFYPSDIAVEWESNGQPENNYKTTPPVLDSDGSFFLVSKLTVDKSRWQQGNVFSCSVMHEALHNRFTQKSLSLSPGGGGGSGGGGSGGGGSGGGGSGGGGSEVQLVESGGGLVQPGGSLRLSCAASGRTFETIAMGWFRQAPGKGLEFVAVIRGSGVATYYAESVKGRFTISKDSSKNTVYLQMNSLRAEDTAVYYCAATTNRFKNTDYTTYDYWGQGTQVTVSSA
BI-054, sequence (chain, as listed by the source, chain 1 of 2): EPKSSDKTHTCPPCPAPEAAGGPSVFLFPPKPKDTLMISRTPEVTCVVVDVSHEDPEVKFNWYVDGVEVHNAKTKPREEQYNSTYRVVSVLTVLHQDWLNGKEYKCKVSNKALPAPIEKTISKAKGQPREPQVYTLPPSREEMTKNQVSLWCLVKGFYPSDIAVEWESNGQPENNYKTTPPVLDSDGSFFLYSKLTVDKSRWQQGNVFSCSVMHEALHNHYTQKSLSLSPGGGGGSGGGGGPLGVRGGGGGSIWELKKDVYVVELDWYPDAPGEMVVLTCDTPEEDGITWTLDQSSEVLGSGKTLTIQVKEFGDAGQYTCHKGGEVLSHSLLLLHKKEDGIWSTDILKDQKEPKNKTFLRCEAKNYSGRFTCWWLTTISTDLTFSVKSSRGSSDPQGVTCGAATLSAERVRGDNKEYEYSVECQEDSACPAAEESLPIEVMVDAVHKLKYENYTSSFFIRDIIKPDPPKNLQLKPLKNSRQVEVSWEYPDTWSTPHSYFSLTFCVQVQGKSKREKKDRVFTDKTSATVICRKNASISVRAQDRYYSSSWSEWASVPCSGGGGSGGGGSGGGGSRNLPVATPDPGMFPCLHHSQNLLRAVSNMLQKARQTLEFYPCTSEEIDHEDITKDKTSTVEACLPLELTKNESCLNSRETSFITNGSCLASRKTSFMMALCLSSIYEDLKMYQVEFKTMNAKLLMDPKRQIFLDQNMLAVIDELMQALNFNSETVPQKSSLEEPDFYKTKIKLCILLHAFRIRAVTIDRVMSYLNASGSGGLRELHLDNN
BI-054, sequence (chain, as listed by the source, chain 2 of 2): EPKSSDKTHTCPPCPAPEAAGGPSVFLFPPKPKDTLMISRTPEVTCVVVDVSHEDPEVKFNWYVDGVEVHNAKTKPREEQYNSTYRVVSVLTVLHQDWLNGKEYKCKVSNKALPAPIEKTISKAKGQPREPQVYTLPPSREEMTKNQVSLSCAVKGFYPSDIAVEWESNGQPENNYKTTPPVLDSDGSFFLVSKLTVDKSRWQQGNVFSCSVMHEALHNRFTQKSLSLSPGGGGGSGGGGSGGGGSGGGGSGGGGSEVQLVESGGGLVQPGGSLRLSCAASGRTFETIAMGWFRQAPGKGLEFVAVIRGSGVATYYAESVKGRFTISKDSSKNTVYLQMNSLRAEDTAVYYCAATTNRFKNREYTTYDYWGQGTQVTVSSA
BI-059, sequence (chain, as listed by the source, chain 1 of 2): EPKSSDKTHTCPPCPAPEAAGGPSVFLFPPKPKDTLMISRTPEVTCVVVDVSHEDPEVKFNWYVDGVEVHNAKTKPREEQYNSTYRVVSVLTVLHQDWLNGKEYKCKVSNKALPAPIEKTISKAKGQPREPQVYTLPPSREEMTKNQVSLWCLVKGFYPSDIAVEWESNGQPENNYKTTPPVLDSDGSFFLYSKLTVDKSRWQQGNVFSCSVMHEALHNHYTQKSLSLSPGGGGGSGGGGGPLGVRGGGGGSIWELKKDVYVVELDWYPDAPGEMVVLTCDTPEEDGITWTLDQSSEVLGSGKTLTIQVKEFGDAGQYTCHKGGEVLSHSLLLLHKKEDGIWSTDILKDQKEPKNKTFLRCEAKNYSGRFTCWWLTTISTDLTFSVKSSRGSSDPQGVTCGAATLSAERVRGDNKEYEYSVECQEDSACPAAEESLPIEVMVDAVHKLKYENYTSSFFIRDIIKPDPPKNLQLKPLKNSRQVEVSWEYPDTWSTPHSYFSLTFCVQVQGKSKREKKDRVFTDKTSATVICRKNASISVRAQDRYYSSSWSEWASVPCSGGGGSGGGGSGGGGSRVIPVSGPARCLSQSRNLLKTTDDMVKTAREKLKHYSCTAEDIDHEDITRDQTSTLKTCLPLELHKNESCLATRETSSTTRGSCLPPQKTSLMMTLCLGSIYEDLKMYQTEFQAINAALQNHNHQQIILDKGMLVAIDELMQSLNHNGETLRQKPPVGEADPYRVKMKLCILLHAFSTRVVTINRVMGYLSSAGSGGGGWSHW

In the case of rmMMP2, the Specific Activity was 165 pmol/min/µg with Peptide 5 (GPLGVRG), 98.9 pmol/min/µg in the series on Peptide 10, 233 pmol/min/µg with Peptide 8 and 10 pmol/min/µg in [1].

With rhMMP9, the “cleavage shown by SDS-PAGE” value with BI-051, with BI-055, in the series with BI-054, in the series with BI-050 and with BI-052 was “efficiently cleaved” each time. Moreover, the Specific Activity in the series with Peptide 5 (GPLGVRG) came out at 200 pmol/min/µg; in the series with Peptide 10, 63.6 pmol/min/µg; in the series with Peptide 8, 123 pmol/min/µg; in series [1], 10 pmol/min/µg. Moreover, the “cleavage by Western blot” value with BI-059 is “efficiently cleaved with the human tumor lysates to the level comparable to activated MMP9”.

As to rhMMP3, the Specific Activity in the series on Peptide 5 (GPLGVRG) amounted to 14.2 pmol/min/µg; in the series with Peptide 10, 18.3 pmol/min/µg; with Peptide 8 it was 51.2 pmol/min/µg; in series [1], 10 pmol/min/µg.

The record behind these values is patent publication US20240262879.
